# Assay results reported in the DeepSol protein solubility set.
# Assay: soluble on expression in E. coli; label from the status in PepcDB or PDB records
row,Sequence,soluble on expression in E. coli
1,MFMREIELRGHIIDSLILPKVFDKILDMGGDYKVLEFEIGKRKTDPSYAKILVIGRDERHVDEILNELRDLGAEIPEIEEVELQPAEKDMVLPEGFYSTTNHKTFIRFKGKWIEVENQKMDGAIVVYPDEMRAEVKTIRNIKKGDLVVVGHKGVRVIPPEKPREGGGLFEFMKSDASSEKPKETIIRRIAKEMYEIREKYRKTGKGGIVVVGGPAIIHTGAGWALAKLIRMGYVQALFAGNALATHDIESVLYGTSLGVDLKTGKSVPGGHSHHLRAINTIMRAGSIKDAVEQGILKEGVMYECIKNNIPYVLAGSIRDDGPLPDVITDVVKAQEKMRELLKGKDMVLMLSTMLHSIATGNLLPSWVKTICVDINPAVVTKLMDRGTSQALGIVTDVGVFLPMLVEELEKLEKEKEKSEKREELEHHHHHH,soluble
2,MFNSKPLLTITLLAVSSVASAAEQALDAQQVAQLIEKADSYRLQDDSSKVVSLVRLYQDQELDKTRLYHVYTRPNRESLVVFKSAVEAGQKMLMMGDNYWLQMPKSRRPIRITPMQKLLGEASIGDISTLTWSQDYQGEWKATETLTINGQSIAAYRLALTAKTKGASYQKIDLWLSEQDAFPIKADLYLRSGKLAKQAQYGRATNLGKDYVSEMTLLDSIQPSKKTVIEYQEIVPWQLDNKFYNPSYLPKANTSEL,not soluble
3,MFQIKKAAVLGSGVMGSGIAAHLANIGIPTLLLDIVPPALTKEEEAKGLTLEHKSVRNRFSNTAVQKLLKQKPAPLTVKGNLALIEAGNLEDDLERLADVDWIIEVVVENLDIKKKLFEKVDAVRKPGSIVSSNTSGISVEKMAEGRSDDFQKHFLGTHFFNPPRYLKLLEVIPTKKTDPQVLSFMKLFGEDVLGKGVVIAKDTPNFIGNRIGTYGLLVTLQEMVKRGYSIGEVDSVTGPLIGRPKSATFRTLDVVGLDTFVYVANNVYENVQEKERDVFKVPAFMHDMLDKKWLGSKTGQGFFLKQGKEILELNPETMEYEARKKLKAASIELSKQEKGLSNKLKALVYAKDRAGELLWNIITPTLLYSAKLHKEIADDIVAIDQAMKWGFGWEQGPFEVWDAIGVEKSVQKMEESGAVIPAWVKEMLEKGFTTFYKHDNGDSYYYDNGEYKLIECNKKAISLKQLKAKNGVLKKNSGASLIDLGDGILCLEFHSKSNAIGMDITQMINYAVDEVEKNYKGLVIGNQSKNFCVGANLAMILMEAQDDNYFEIEWVVKNFQDAMMKIKYSSKPVVAAPYGMTLGGGTEVCLPAASIQASSETYMGLVEVGVGLIPGGGGNKELYIKHLNKMANGVEFDLQKVANKVFETVAMAKVLTSGQEAVSHNFLGDKDGISVNGDHLLYDAKQKALALYEAGYKAPIRKKIPVVGETGYATLALGAEAMHLSGYISEYDLHIAKKLAYVIAGGKVPYGTEVDEQYLLDVEREAFISLVSEMKSQARMQHMLVKGKPLRN,not soluble
4,MFQIQETIVSPDLFDKYFVCDYATCQGICCVEGESGAPLEAGEADLLRKYLDAVRDMLSSEALEVIDKQGVSYLDVEGDEVTSIVNGRDCVFTTYDEKGNCLCAFERAYRLGKIDFPKPLSCHLYPVRLTRYSSFTAVNYHRWEICRCAEALGRQMGTPLYRFLKEPLIRAFGKEWYKEMEEIAALLEQNPLKR,not soluble
5,MFQLLAVCPMGLEAVVAKEIQELGYDTQVENGRIFFEGDESAIVRCNLWLRTADRIKIVMGRFNATTFDELFEQTKSLPWETVIDKEGNFPVQGRSVKSTLYSVPDCQAITKKAIVERLKHAHQEKGWLSETGAKYPVEVAILKDNVLLTIDTAGSGLNKRGYRIAQGEAPIKETLAASLIRLANWNGNTPLIDPFCGSGTIAIEACLIAQNIAPGFNRDFVSEQWNMMPPNIYDKFRDEADQLADYDKDIQVYASDIDPEMIEIAKRNAEEVGLGDIIQFNVKDVNTLSIDTDKPVALVGNPPYGERIGDREEVEEMYRYIGTLLKQHPHLSAYILTSNKEFEYLVNRKATKRRKLFNGYIECTYYQYWGKKQSNKN,not soluble
6,MFQQLSARLQEAIGRLRGRGRITEEDLKATLREIRRALMDADVNLEVTRDFVERVREEALGKQVLESLTPAEVILATVYEALKEALGGEARLPVLKDRNLWFLVGLQGSGKTTTAAKLALYYKGKGRRPLLVAADTQRPAAREQLRLLGEKVGVPVLEVMDGESPESIRRRVEEKARLEARDLILVDTAGRLQIDEPLMGELARLKEVLGPDEVLLVLDAMTGQEALSVARAFDEKVGVTGLVLTKLDGDARGGAALSARHVTGKPIYFAGVSEKPEGLEPFYPERLAGRILGMGDVASLAEKVRAAGLEAEAPKSAKELSLEDFLKQMQNLKRLGPFSEILGLLPGVPQGLKVDEKAIKRLEAIVLSMTPEERKDPRILNGSRRKRIAKGSGTSVQEVNRFIKAFEEMKALMKSLEKKKGRGLM,soluble
7,MFRLRLISGFNFAPIIADAIVDLSKDFFQSDNSEVCCGQILYLAISDEEGPGKPILDSKHVEVILTLDLPEDMDVYEKFGLSAYRQHILLRITQEARDQNALLTIKDLVKLLKSSYSTIIRDLKYFREKGLYVPLRGIVKDIGPSSHKSKIVELYLKGYTTTEIQRSTRHSLQSIERYIKDFSRVSILTQKGESIDNIRLIVGISERLVKEYQELFIKYKDGDNKQRVEELIDNITVYDSPMSFKKNSGMRM,not soluble
8,MFSGKTSRLIELMERHILAGRKVTLFKPEIDSRYSENEVVTHKGIKLPAVIAPTDERFGEFLAARTRDSNVLGFDEAQFWKPSSRLPQHLEDLANSGRTVYVAALNRDHFGNPFRMTVDILAISDEIYTLSAVCSRCGSDAIFTQRIINGSPAFGEIIRIGGKDLYEPRCRNCFVWPSAQKRITDL,soluble
9,MFSKVNNQKMLEDCFYIRKKVFVEEQGVPEESEIDEYESESIHLIGYDNGQPVATARIRPINETTVKIERVAVMKSHRGQGMGRMLMQAVESLAKDEGFYVATMNAQCHAIPFYESLNFKMRGNIFLEEGIEHIEMTKKLTSLN,not soluble
10,MFSTKKSQGNLHKYIQRQSTDEFAVKAREHNYRARSAFKLIEINEKFKFLKPESTVIDIGCAPGSWLQVVVQKCPNGYASGVDLQNVLPIRGADILSLSDITDPAVKLKIREKLAHRQVDVVLSDMAPNPTGDNATDHLRLIELCRSVFRLFSVENEIELVKNGVYLCKIWDGSARAEFVRELSDRFSTVKTVKPTACRDNSAELYLFCRNFKK,not soluble
11,MFTPIDQAIEHFKQNKFVIVMDDAGRENEGDLICAAENVSTEQMAFLVRHSSGYVCAPMTNAIADKLDLPLLRTGMKFESNDDDRHGTAYTITVDVAQGTTTGISAHDRSMTCRALADSSSTPKSFLKPGHICPLRAADGGVLQRRGHTEAGVDLCKLSGLSPVAVIGELVNDDEQGTMMRLNDCQAFGKKHGIPLISIEELAQYLKK,soluble
12,MFTTKGIDISGELTMMGIPEQNSKTVTPGLHYAADGFRLSGGNANFIARNMASVTGNIYADDAATITLGQPETETPTISSAYQAWAETLLYGFDTAYRGAITAPKATVSMNNAIWHLNSQSSINRLETKDSMVRFTGDNGKFTTLTVDNLTIDDSAFVLRANLAQADQ,not soluble
13,MFTTVITPRVSETDGVGHINNTTVPVWFEAGRHEIFKLFTPDLSFKRWRMVIIRMEVDYVNQMYYGQDVTVYTGIERIGNTSLTIYEEIHQNGVVCAKGRSVYVNFNFDTGRPEPIPDDIRVKLREHVWQPGE,soluble
14,MFVMEKVLFPFSAVVDEDDLKMALILNAIDQRIGGVLIMGPKGVAKSTIARSLTDLLPDIDVVKDCPFKCDPHDPSSMCDECIKKYRDGTIVSEKRKIPFVNMPVTATLDRVVGSLDIKRAIDEGLRALQPGLLAEANRGIIYIDEVNLLDDSVVDSILDSAASGINVVEREGVSVTHPARFILIGTMNPEEGDLRPQLKDRFGLSVTAVQPSDPEELIEISNRVEEFDRDPEAFRRKYEKIQNEIRNRIMRARSLLPSVVIDEDLKRFIAEVVIKLQAGNRAMITAVKASKAIAAFNGRDRVNIDDVKEALNLVLKHRVKDSAMIRGTIEKESRDLSTRSVEAGPHSGYEEGSESSGRRDMKAGNGKDEEKDVEVSAAFDEESNRSGRTGNADIFRILDQNRPGDHFDYRASLVNMIMNGRRRMKYEDLAFVSSRSRASIPVILAVDASRSMETMHRIALARGIARSFLHSAYRMRVKLSYITFYGTESHLMVEPTRNLDLIDREISRTVPQGKTPIPAALKMMYDISSRYRQRTVSIMITDGRANVPLGNDVTHDVREWSAKLGTRSDLFLISSTMGSERFMPSYNEDICRYSGGQLIEMDGNGHIALYSGYRRY,soluble
15,MFYGGIDVAKYRHEICIVDESGNVILQIFVDNTRNGLDKLIHNLKRLEIEVSNVEFCLEATGHYWLSLYYHLTELGYKIHVINPIQSDALRNFYVRKTKTDRKDAHLLADIVRFGHISETKLASETVLKLQNLSRLRFEFVRQVGGLKNRVLGILDRIFPEYPQCFSNVFINTSRELLKSFTAPEDLAEADLSELTDFLNKHSRGRLGVDRAKQIQALAKGTFGINIALDAFTLELRLLVEQIEFIEEQISVIEEAIDQVMEEMRPSKDTAYRHVLETIPGIGPVLAASIIGEIGDINRFPNAKALVAYAGLDATVRSSGQFEGTRNRISKRGSPVLRHSIWLAAVSARRFNPEMKEFFEKKRSEGKHTLVATGAVARRMVHLIYSLWKDNRPFDPNYQWSPTNSR,not soluble
16,MFYKEENFKKTEIGEIPEDWEIVELKDVCKKIKAGGTPKTSVEEYYKNGTIPFVKIEDITNSNKYLTNTKIKITEEGLNNSNAWIVPKNSVLFAMYGSIGETAINKIEVATNQAILGIIPKDNILESEFLYYILAKNKNYYSKLGMQTTQKNLNAQIVKSFKIPLPPLEEQKQIAKILTKIDEGIEIIEKSINKLERIKKGLMHKLLTKGIGHSRFKKSEIGEIPEDWEVFEIKDIFEVKTGTTPSTKKSEYWENGEINWITPLDLSRLNEKIYIGSSERKVTKIALEKCNLNLIPKGSIIISTRAPVGYVAVLTVESTFNQGCKGLFQKNNDSVNTEFYAYYLKFKKNLLENLSGGSTFKELSKSMLENFKIPLPPLEEQKQIAKILSSVDKSIELKKQKKEKLQRMKKKIMELLLTGKVRVKT,soluble
17,MGANALDFYPEPLREEIERLNGRIYPAVNNGVYRAGFATRQDAYEEAFVQLFEELDYLEGLLGERRYLAGEYLTEADIRLFTTLVRFDAVYHGHFKCNLRRIEDYPNLSGWLRELYQRPGIGETVLEHHHHHH,not soluble
18,MGASMTGGQQMGAPITAYAQQTRGLLGCIITSLTGRDKNQVEGEVQIVSTATQTFLATCINGVCWTVYHGAGTRTIASPKGPVIQMYTNVDQDLVGWPAPQGSRSLTPCTCGSSDLYLVTRHADVIPVRRRGDSRGSLLSPRPISYLKGSSGGPLLCPAGHAVGLFRAAVCTRGVAKAVDFIPVENLETTMRSGSHHHHHH,soluble
19,MGATGVASQRKTIEESIERNKEKYIETSHDIHANPEIGNQEFYASRTLSLLLGSAGFQLQHNIAGHETGFIARKSSGKQGPAIAFLAEYDALPGLGHACGHNLIGTISVAAAIALSETLEEIGGEVVVFGTPAEEGGPNGSAKSSYVKAGLFKNIDAALMIHPSGKTATTSPSLAVDPLDFHFYGKTAHAAASPEEGINALDAVIQLYNSINALRQQLPSDVKIHGVITEGGKAPNIIPDYAAARFFIRAATRKRCAEVTEKVKNIAQGAALATDTKVKIHQFQNEIDELLVTKTYNDVVAEELELLGEDVNRKERFGIGSTDAGNVSQVVPTIHPYIKIGPDDLIAHTNEFREAARSELGDKALITSAKALANTAYRLITEEGLLEKVKEEFREAQRNQG,not soluble
